Assay results: patent publication US20180017550

Columns and labels:
[1] = molecular target: human protein kinase A catalytic subunit alpha, cell-free expressed with C-terminal HSV epitope tag and polyhistidine tag (UniProt P17612)
[2] = system: Human casein kinase II (CK), cell-free expressed with C-terminal HSV epitope tag and polyhistidine tag
[3] = molecular target: human p53 oncoprotein (cellular tumor antigen p53), cell-free expressed from pETBlue-2 with C-terminal HSV epitope tag and polyhistidine tag (UniProt P04637)
[4] = molecular target: human MDM2 (ubiquitin-protein ligase E3 MDM2), cell-free expressed with C-terminal HSV epitope tag and polyhistidine tag (UniProt Q00987)

human recombinant Src pp60 tyrosine kinase (Invitrogen Corporation)
phosphorylation of photo-transferred protein on microarray, anti-phosphotyrosine (RC20) detection [1]: significant phosphorylation of CK and PKA | phosphorylation of photo-transferred protein on microarray, anti-phosphotyrosine (RC20) detection [2]: significant phosphorylation of CK and PKA | phosphorylation of photo-transferred protein on microarray, anti-phosphotyrosine (RC20) detection [3]: p53 is not phosphorylated by either kinase | phosphorylation of photo-transferred protein on microarray, anti-phosphotyrosine (RC20) detection [4]: Both kinases heavily phosphorylate the MDM protein
